Results from patent publication US20150004133A1, “Compositions And Methods For Treating Steatohepatitis, Liver Fibrosis, and Hepatocellular Carcinoma (HCC)” (The Regents of the University of California, priority 2013, published 2015).

Assays:
[1] = tested on: primary wild type HSCs and Stat3-deficient HSCs; test: IL-17A-dependent collagen-α1(I) expression in wild type and Stat3-deficient HSCs; format: cell-based, mouse; settings: IL-17A 10 ng/ml, 8 h
Excerpt: (§1) FIG. 9. […] Representative images are shown using ×20 objective. […] Deletion of Stat3 in HSCs was achieved by crossing GFAP-Cre mice×floxed Stat3^f/f mice=GFAP^Stat3−/− mice. […] Nuclear translocation of Stat3 (but not phosphor-Smad2/3) was detected in wild type HSCs but not in Stat3-deficient HSCs. Representative images are shown using ×20 objective. (E) IL-17-dependent collagen-α1(I) expression is impaired in Stat3-deficient HSCs.
HSCs are the only liver cell type that expresses GFAP^1. The role of Stat3 in IL-17A-mediated collagen-α1(I) expression was tested in primary wild type HSCs and Stat3-deficient HSCs, isolated from GFAP^Stat3−/− mice (GFAP^Cre mice×floxed Stat3^f/f mice, FIG. 9D). […] Next, the relevance of IL-17 signaling was accessed in human HSC cell lines.

[2] = tested on: primary murine HSCs; test: Collagen-α1(I)-GFP expression in primary HSCs from Col-GFP reporter mice; format: cell-based, mouse; settings: 48 hours; for expression of GFP (percent of cells upregulated collagen-α1(I)-GFP): IL-17A 10 ng/ml
Excerpt: as §1
For this purpose, primary HSCs were isolated from Col-GFP reporter mice (expressing GFP under collagen-α1(I) promoter) or Col-GFP^IL-17RA−/− mice (generated by crossing IL-17RA^−/− mice with Col-GFP mice, FIG. 9B).

[3] = tested on: Stat3; test: Nuclear translocation of Stat3 in HSCs (fluorescent microscopy); format: cell-based, mouse; settings: primary murine HSCs, IL-17A 10 ng/ml
Excerpt: as §1
Next, phosphorylation of IL-17 target proteins in KC and HSCs was assessed in vitro (FIG. 18E). […] While the IL-17 signaling pathway in macrophages is characterized^8,22 (and FIG. 18F), IL-17 signaling in HSCs is unknown. […] Thus, similar to macropahges^8,22, NF-κB and Stat3 are downstream targets of IL-17 signaling in HSCs. While NF-κB signaling is required for survival of activated HSC^23, Stat3 may mediate HSC activation by stimulating collagen production.

[4] = tested on: BDL-operated mice; test: BDL-induced liver fibrosis in mice with daily administration of IL-22 or IL-17E; format: in vivo; settings: 0.5 μg/mouse daily for 7 days, compared to BDL wt mice+PBS
Protocol: FIG. 11. IL-23 and IL-22 have opposing roles in liver fibrosis. […] Quantification of Sirius Red and α-SMA staining, mRNA expression is shown (p<0.05, compared to BDL wt mice). mRNA expression is fold induction compared to oil-control Wt→wt mice. (D) The percent of inhibition of liver fibrosis was calculated for BM chimeric mice in response to liver injury (in comparison Wt→wt mice, 100%, p<0.01) based on Sirius Red and α-SMA expression. […] Increased fibrosis was detected in IL-22^−/−→wt mice. (E) Administration of IL-22 and IL-17E attenuates liver fibrosis. BDL-operated mice were daily treated with IL-22 (0.5 μg/mouse, n=4), IL-17E (0.5 μg/mouse n=5), or vehicle (PBS) for 7 days, tissues were analyzed by Sirius Red, and α-SMA staining; mRNA expression is shown (p<0.05, compared to BDL wt mice+PBS).
Liver injury was induced in mice by […] with CCl4 (1:4 dilution in corn oil, 200 μl×12 injections^2) or by BDL (3 weeks)^2.
The role of IL-22 and IL-17E in liver fibrosis was examined in BDL-operated mice, injected with IL-22 (0.5 μg/mouse) or IL-17E (0.5 μg/mouse, FIG. 11E).

[5] = tested on: LX-2 human HSC cell line; test: Fibrogenic gene mRNA induction in the LX-2 cell line (RT-PCR); format: cell-based; settings: LX-2, 10 ng/ml, 72 h, compared with non-stimulated cells
Protocol: RT-PCR and real time quantitative PCR. […] Methods.
mRNA was isolated and RT-PCR was performed using ABI 7000 sequence detection system (Applied Biosystems), specific primers and SYBRGreen. Ct values of each sample were normalized to 18s mRNA expression. Values were expressed as fold induction in comparison with untreated or sham controls.

IL-17A: IL-17 family cytokine mainly produced by CD4+ Th17 cells; purchased from R&D
collagen-α1(I) expression ([1]; Stat3-deficient HSCs from GFAP Stat3−/− mice): failed to induce
collagen-α1(I) expression ([1]; wild type (Stat3f/f) HSCs): induced
expression of GFP (percent of cells upregulated collagen-α1(I)-GFP) ([2]; IL-17RA−/− HSCs (Col-GFP IL-17RA−/−)): 5±2%
expression of GFP (percent of cells upregulated collagen-α1(I)-GFP) ([2]; wild type Col-GFP HSCs, baseline 1±0%): 34±7%
time to nuclear translocation of Stat3 in HSCs [3]: 10 to 15 min

TGF-β1: fibrogenic cytokine used as a control; purchased from R&D [reference compound]
expression of collagen-α1(I)-GFP ([2]; both wild type and IL-17RA−/− HSCs, TGF-β1 3 ng/ml, control): strongly induced

B1: IL-22: protein that in humans is encoded by the IL22 gene; cytokine purchased from R&D (protein, UniProt Q9GZX6 34-179, looked up)
Interleukin-22: APISSHCRLDKSNFQQPYITNRTFMLAKEASLADNNTDVRLIGEKLFHGVSMSERCYLMKQVLNFTLEEVLFPQSDRFQPYMQEVVPFLARLSNRLSTCHIEGDDLHIQRNVQKLKDTVKKLGESGEIKAIGELDLLFMSLRNACI
reduction of Sirius Red staining [4]: 3 fold
reduction of mRNA for Col-α1(I) [4]: 3 fold
reduction of mRNA for α-SMA [4]: 2.5 fold

B2: IL-17F: IL-17 family cytokine; purchased from R&D (protein, UniProt Q96PD4 31-163, looked up)
Interleukin-17F: RKIPKVGHTFFQKPESCPPVPGGSMKLDIGIINENQRVSMSRNIESRSTSPWNYTVTWDPNRYPSEVVQAQCRNLGCINAQGKEDISMNSVPIQQETLVVRRKHQGCSVSFQLEKVLVTVGCTCVTPVIHHVQ
induction of Col-α1(I) mRNA [5]: 7 fold
induction of α-SMA mRNA [5]: 6 fold

B3: IL-17E: Interleukin 25; cytokine that binds to IL-17RA and IL-17RB heterodimers (protein)
chain: YSHWPSCCPSKGQDTSEELLRWSTVPVPPLEPARPNRHPESCRASEDGPLNSRAISPWRYELDRDLNRLPQDLYHARCLCPHCVSLQTGSHMDPRGNSELLYHNQTVFYRRPCHGEKGTHKGYCLERRLYRVSLACVCVRPRVMG
reduction of Sirius Red staining [4]: 3 fold
reduction of mRNA for Col-α1(I) [4]: 3 fold
reduction of mRNA for α-SMA [4]: 2.5 fold
